What was measured:
[1] = molecular target: PDCoV S ectodomain, prefusion S trimer (porcine deltacoronavirus (PDCoV)); assay: cryo-EM structure; PDCoV S ectodomain (10.5 µM protomer) incubated with 22C10 Fab for about 10 min at room temperature
[2] = molecular target: T1, full length PDCoV S protein expressed on Huh7 cells (porcine deltacoronavirus (PDCoV)); assay: immunostaining of cells or tissue; settings: one partner purified
T1 construct: source: Huh7, transfected (pCAGGS), formaldehyde-fixed cells
T1 chain: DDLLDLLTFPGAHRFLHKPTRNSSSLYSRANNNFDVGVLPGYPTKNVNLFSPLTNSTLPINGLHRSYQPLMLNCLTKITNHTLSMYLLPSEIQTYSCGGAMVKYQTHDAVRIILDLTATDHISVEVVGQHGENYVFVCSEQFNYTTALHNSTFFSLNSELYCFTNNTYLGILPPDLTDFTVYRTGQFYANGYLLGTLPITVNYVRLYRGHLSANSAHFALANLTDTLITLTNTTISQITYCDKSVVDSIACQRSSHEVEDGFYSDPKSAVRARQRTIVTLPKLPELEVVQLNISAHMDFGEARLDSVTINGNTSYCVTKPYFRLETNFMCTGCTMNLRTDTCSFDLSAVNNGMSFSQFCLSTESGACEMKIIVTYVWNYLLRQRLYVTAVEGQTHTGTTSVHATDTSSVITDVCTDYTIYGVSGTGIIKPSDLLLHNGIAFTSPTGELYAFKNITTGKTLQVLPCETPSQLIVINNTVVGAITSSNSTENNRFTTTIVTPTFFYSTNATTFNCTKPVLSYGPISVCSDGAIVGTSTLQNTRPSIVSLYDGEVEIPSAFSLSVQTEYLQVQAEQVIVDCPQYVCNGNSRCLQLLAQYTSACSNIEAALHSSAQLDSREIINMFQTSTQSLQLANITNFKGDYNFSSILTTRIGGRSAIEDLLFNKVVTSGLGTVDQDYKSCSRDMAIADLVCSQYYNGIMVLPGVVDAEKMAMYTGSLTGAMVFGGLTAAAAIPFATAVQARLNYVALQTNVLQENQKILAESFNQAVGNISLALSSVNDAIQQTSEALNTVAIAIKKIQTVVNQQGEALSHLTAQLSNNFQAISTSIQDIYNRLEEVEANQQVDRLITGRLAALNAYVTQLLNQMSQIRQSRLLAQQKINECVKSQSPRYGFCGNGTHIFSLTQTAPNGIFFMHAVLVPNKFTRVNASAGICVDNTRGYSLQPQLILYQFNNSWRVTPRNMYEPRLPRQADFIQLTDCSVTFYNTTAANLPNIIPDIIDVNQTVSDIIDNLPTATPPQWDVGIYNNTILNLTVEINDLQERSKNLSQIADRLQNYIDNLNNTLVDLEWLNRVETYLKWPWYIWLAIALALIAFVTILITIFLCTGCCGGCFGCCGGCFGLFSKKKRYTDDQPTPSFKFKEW

[3] = molecular target: T2, recombinant PDCoV S1 monomer (porcine deltacoronavirus (PDCoV)); assay: BLI
T2 chain: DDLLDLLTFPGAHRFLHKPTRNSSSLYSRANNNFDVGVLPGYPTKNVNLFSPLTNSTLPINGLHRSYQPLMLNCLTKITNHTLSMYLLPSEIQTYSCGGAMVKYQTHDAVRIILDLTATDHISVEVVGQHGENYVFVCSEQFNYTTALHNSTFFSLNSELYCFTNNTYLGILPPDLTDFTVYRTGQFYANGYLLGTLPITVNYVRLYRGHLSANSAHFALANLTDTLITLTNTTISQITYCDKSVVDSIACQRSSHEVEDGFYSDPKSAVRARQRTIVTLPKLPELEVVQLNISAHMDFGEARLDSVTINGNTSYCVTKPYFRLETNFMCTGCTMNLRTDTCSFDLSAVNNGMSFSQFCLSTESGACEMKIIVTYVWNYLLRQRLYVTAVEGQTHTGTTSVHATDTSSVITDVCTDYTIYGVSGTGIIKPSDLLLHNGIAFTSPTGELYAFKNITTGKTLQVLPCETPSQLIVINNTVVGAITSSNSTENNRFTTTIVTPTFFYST

[4] = molecular target: T3, PDCoV S1 (wild type), ELISA antigen (Porcine deltacoronavirus …, UniProt W8Q9Y7); assay: ELISA; settings: both partners purified
T3 construct: source: HEK-293T, purified (Protein A Sepharose)

[5] = molecular target: recombinant PDCoV S1 monomer (Porcine deltacoronavirus …, UniProt W8Q9Y7); assay: BLI; settings: both partners purified
PDCoV S1A domain = molecular target: T4, PDCoV S1A domain (Porcine deltacoronavirus …, UniProt W8Q9Y7); assay: ELISA; purified Strep-tagged S antigens (S trimer, S1B, S1A; 1 µg/ml) coated on Maxisorp plates; human mAbs in fivefold dilutions from 10 µg/ml, RT 1 h; detection with HRP anti-human IgG; settings: both partners purified
T4 construct: also called N-terminal domain; NTD; source: HEK-293T, transient (pCAGGS), purified from culture supernatant (streptactin beads); not shown: triple Strep-tag, C-terminal, kept

[6] = molecular target: T5, PDCoV S ectodomain, prefusion S trimer (porcine deltacoronavirus (PDCoV)); assay: BLI; monomeric S1B or untreated trimeric S immobilised on anti-strep mAb-coated protein A biosensor; mAb (50 µg/ml) or APN (100 µg/ml) for 30 min; settings: both partners purified
T5 construct: also called prefusion PDCoV S trimer; trimeric S ectodomain; source: HEK-293T, transient (pCAGGS), purified from culture supernatant (streptactin beads); not shown: GCN4 trimerization motif, C-terminal, kept; Strep-tag, C-terminal, kept
T5 chain: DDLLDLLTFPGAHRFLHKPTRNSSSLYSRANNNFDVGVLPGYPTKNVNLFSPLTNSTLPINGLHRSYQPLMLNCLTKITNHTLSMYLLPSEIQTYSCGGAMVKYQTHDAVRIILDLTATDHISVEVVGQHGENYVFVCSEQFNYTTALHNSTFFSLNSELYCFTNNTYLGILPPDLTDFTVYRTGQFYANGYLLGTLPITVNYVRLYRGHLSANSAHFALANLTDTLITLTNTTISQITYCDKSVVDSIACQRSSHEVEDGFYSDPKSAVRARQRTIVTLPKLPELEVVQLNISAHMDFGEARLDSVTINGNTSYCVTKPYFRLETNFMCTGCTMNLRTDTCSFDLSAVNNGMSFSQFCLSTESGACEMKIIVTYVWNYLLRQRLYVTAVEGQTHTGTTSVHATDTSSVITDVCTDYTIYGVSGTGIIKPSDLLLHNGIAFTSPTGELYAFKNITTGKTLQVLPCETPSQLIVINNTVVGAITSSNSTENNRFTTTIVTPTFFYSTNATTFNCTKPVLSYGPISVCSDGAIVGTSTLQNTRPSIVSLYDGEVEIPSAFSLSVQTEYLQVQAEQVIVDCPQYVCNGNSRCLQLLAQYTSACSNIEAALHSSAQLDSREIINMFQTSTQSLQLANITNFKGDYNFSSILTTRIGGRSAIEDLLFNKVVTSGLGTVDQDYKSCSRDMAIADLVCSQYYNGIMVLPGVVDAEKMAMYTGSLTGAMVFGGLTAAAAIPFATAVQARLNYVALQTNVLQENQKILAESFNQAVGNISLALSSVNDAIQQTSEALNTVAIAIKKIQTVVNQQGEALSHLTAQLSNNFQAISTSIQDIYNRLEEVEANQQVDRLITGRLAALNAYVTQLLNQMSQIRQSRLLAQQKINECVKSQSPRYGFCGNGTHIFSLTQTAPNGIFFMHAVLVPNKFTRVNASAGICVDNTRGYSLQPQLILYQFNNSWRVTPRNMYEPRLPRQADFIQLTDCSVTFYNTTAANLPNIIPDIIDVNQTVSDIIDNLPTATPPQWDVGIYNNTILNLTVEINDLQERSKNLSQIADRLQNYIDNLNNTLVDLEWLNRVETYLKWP

| Molecule | stoichiometry N [1] | binding result [2] | Kd [3] | binding result [4] | binding result [5] | binding result (PDCoV S1A domain) | binding result [6] |
| --- | --- | --- | --- | --- | --- | --- | --- |
| PDCoV S ectodomain, prefusion S trimer (domain or fragment) | 3 | – | – | – | – | – | – |
| 22C10 human IgG1 monoclonal antibody (antibody, V domains shown, IgG1, kappa; also called mAb 22C10; source: HEK-293T, transient, purified (Protein A Sepharose)) VH: EVRLLESGGGLVQPGGSLRLSCAASGFTFSSYAMSWVRQAPGKGLEWVSIITDSGGGTYFADSVKGRFTISRDNSKNTLYLQMNSLRAEDTALYYCVKVGFCYSSTCPFDYWGQGTLVTVSS VL: ELVMTQSPATLSVSPGERATLSCRASQSVSSDLAWYQQRPGRAPRLLIYDASTRTTGIPARFSGSGSGTEFTLTISSLQSEDFAVYYCHQYNNWLTFGQGTRLEIK | – | binds | 46.6 nM | binds | binds | binds | binds |
| 42H3 human IgG1 monoclonal antibody (antibody, V domains shown, also called S1B neutralizer) VH: QVQLVESGGGVVQPGRSLRLSCAASGFTFSSYDMHWVRQAPGKGLEWVAVIWNDGSNEYYADSVKGRFIISRDNSKNTLYLQMNSLRAEDTAVYYCARRGIIMVRGLLGYWGQGTLVTVSS VL: DIQMTQSPPSLSASVGDRVTITCRASQGISNYLAWHQQKPGKVPKLLIYTASTLQSGVPSRFSGSGSGTDFTLTISSLQPEDVATYYCQKYNSAPFTFGPGTKVDIK | – | – | 42 nM | – | binds | – | – |
| 46E6 human IgG1 monoclonal antibody (antibody, V domains shown, IgG1, kappa; also called S1B neutralizer) VH: QVQLVESGGGVVQPGRSLRLSCAASGFTFSSYAMHWVRQAPGKGLEWVAVIWRDGSNEFYADSVKGRFTISRDNSKDTLYLQMNSLRAEDTAVYYCARRGIIMVRGLLGYWGQGTLVTVSS VL: DIQMTQSPPSLSASVGDRVTITCRASQGISNYLAWHQQKPGKVPKLLIYTASTLQSGVPSRFSGSGSGTDFTLTISSLQPEDVATYYCQKYNSAPFTFGPGTKVDIK | – | – | 19.9 nM | – | binds | – | – |

From publication PMC11193727, “Neutralizing antibodies reveal cryptic vulnerabilities and interdomain crosstalk in the porcine deltacoronavirus spike protein” (Nature Communications, 2024)
